We go through 3 molecules from PMC12903456, “DoMYB75 coordinately regulates polysaccharide and anthocyanin biosynthesis in Dendrobium officinale”.

B1: ProCSLA3 probe (dsDNA)
DNA 1: TCACATTTATCACGTTTGAGTTCGATACCAACTTTTTTTTTTTTTTTTTGAGC
DNA 2: GCTCAAAAAAAAAAAAAAAAAGTTGGTATCGAACTCAAACGTGATAAATGTGA
B2: ProCSLA12 probe (dsDNA)
DNA 1: CCCTAAAGGTTGGAGTTGGTCACTCAACCTAACCTTAAATAATGATTCATGTTGTATTC
DNA 2: GAATACAACATGAATCATTATTTAAGGTTAGGTTGAGTGACCAACTCCAACCTTTAGGG
B3: ProCSLA9 probe (dsDNA)
DNA 1: TAAGAAACTTTGATAACTATTAGATGACCAAATTAATTCAATCATACCGTAAATAATTC
DNA 2: GAATTATTTACGGTATGATTGAATTAATTTGGTCATCTAATAGTTATCAAAGTTTCTTA

Sequence of MBP-DoMYB75 (A0A2I0X1N0 entry or part of it): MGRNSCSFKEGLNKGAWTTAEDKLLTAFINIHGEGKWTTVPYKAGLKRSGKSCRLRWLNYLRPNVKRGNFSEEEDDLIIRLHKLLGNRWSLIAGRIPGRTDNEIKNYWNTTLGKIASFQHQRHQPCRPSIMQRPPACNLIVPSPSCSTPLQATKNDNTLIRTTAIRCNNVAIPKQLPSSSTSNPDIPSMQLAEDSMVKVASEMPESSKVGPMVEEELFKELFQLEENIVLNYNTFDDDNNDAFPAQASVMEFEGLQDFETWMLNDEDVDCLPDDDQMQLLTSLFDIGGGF

This data set concerns the target MBP-DoMYB75 (Dendrobium officinale, UniProt A0A2I0X1N0 1-290). Description: EMSA; competed by unlabeled probe; LightShift Chemiluminescent EMSA Kit (Thermo Fisher) per manufacturer; buffer, salt, pH and temperature not stated. The conditions noted are these: protein: recombinant; tags: MBP; label: biotin; blunt. On the technique in general: Mobility shift assays separate free from complexed probe on a gel.
For the molecule B1, the binding result was “binds”.

As for B2, the binding result was “binds”.

B3: the binding result is recorded as “binds”.
